According to patent US20140087995A1 (published 2014):
Numbered stars: 1 amine (or outer) side, 2 acyl side, 3 side chain; on linkers, the order of the positions; unused ones are H or OH. Bridge positions count the residues as written; N and C are the ends. Side chains are listed from the residue outwards. Ends that are not written are not given here. * marks the point of attachment. C20 diacid = O=C(O)CCCCCCCCCCCCCCCCCCC(=O)*; γGlu = O=C(O)[C@H](CCC(=O)[*:2])N[*:1]

T1: rat amylin receptor (rat calcitonin receptor + rat RAMP 3) (rat, UniProt P32214 25-516; Q9JJ73 23-147)
T1 construct: whole, on cells; Membranes of BHK tk'ts 13 cells transiently transfected with the rat calcitonin receptor and rat RAMP 3; also called rAmylin-R; rat amylin 3(a) receptor
T1 sequence (looked up) 1: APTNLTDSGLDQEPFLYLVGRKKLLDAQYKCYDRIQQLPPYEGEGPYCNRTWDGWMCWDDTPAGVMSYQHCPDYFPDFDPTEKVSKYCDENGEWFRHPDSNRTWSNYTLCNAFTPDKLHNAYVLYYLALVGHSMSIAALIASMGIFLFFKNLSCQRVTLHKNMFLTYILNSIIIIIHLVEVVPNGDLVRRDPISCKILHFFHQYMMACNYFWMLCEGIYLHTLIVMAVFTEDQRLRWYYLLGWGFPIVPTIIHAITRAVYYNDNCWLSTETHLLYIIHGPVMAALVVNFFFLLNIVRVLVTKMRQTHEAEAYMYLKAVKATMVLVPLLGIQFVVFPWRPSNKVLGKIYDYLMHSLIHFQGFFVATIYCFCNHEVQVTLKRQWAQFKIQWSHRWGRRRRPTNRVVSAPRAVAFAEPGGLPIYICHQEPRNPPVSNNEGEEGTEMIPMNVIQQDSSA
T1 sequence (looked up) 2: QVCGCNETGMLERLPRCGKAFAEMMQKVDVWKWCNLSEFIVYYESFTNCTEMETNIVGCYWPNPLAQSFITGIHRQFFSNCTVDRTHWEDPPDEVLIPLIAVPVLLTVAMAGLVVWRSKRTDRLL

T2: rat calcitonin receptor (rat, UniProt P32214 25-516)
T2 construct: whole, on cells; Membranes of BHK tk'ts 13 cells transiently transfected with the rat calcitonin receptor; also called rCTR; rat calcitonin (a) receptor
T2 sequence (looked up): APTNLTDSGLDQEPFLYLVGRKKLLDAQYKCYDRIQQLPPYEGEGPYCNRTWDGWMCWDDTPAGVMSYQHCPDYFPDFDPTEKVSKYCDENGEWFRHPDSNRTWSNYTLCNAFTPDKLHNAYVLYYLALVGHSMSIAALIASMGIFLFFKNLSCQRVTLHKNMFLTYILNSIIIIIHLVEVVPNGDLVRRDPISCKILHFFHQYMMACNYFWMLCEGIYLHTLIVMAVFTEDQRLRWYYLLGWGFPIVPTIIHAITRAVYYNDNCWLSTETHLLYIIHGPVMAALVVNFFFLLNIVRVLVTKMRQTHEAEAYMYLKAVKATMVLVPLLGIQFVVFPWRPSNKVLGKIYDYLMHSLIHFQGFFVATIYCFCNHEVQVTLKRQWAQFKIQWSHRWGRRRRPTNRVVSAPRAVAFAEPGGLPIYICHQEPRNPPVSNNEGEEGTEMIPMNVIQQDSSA

T3: human calcitonin receptor (human, UniProt P30988 25-474)
T3 construct: whole, on cells; Membranes of a BHK tk'ts 13 cell line stably transfected with the human calcitonin receptor; also called hCTR; hCT
T3 sequence (looked up): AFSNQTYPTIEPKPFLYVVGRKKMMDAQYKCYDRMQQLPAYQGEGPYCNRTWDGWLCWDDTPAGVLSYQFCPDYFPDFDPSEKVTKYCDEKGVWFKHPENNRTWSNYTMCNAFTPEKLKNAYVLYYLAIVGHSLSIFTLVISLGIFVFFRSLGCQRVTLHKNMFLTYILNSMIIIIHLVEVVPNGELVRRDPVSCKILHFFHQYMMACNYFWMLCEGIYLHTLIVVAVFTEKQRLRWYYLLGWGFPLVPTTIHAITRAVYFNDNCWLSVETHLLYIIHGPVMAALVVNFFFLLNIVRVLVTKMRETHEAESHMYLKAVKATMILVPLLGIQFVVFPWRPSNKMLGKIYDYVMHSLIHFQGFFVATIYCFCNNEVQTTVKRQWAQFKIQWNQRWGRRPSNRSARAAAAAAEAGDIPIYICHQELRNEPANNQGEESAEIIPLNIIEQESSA


Columns and labels:
[1] = target: T1, rat amylin receptor (rat calcitonin …); test: SPA competition vs 125I-rat amylin, membranes with rat CTR + rat RAMP3 (Assay VI)
[2] = target: T2, rat calcitonin receptor; test: SPA competition vs 125I-calcitonin, membranes with rat CTR (Assay VIII)
[3] = target: T2, rat calcitonin receptor; test: IC50 at rCTR divided by IC50 at rAmylin-R (reference)
[4] = target: T3, human calcitonin receptor; test: IC50 at hCTR divided by IC50 at hAmylin-R (reference)
Summary of the method: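 Competition binding by SPA uses membrane preparations (35 ng/μL final) in pH 7.4 Hepes buffer with 1 mM CaCl2 and 5 mM MgCl₂. Incubation lasts 120 min at 25° C, and IC₅₀ comes from one-site fitting.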

Row | Binder | IC50 [1] | IC50 [2] | Ratio rCT/rAmylin binding [3] | Ratio hCT/hAmylin binding [4]
1 | KCNTATCATQRLANFLRHSSPNFGAIPSSTNVGSNTY (C20 diacid-gGlu-2xOEG on the alpha amino group of the N-terminal residue (Lys 1); disulfide bridge Cys2-Cys7; C-terminal amide, modifications are with respect to human amylin; also called compound 24) | 3.01 nM | 350 nM | 116 | 90
2 | K([γGlu-C20 diacid])CNTATCATQRLANFLRHSSPNFGAIPSSTNVGSKTY-NH2 (disulfide 2-7; N-terminus assumed; SMILES CC[C@H](C)[C@H](NC(=O)[C@H](C)NC(=O)CNC(=O)[C@H](Cc1ccccc1)NC(=O)[C@H](CC(N)=O)NC(=O)[C@@H]1CCCN1C(=O)[C@H](CO)NC(=O)[C@H](CO)NC(=O)[C@H](Cc1c[nH]cn1)NC(=O)[C@H](CCCNC(=N)N)NC(=O)[C@H](CC(C)C)NC(=O)[C@H](Cc1ccccc1)NC(=O)[C@H](CC(N)=O)NC(=O)[C@H](C)NC(=O)[C@H](CC(C)C)NC(=O)[C@H](CCCNC(=N)N)NC(=O)[C@H](CCC(N)=O)NC(=O)[C@@H](NC(=O)[C@H](C)NC(=O)[C@@H]1CSSC[C@H](NC(=O)[C@@H](N)CCCCNC(=O)CC[C@H](NC(=O)CCCCCCCCCCCCCCCCCCC(=O)O)C(=O)O)C(=O)N[C@@H](CC(N)=O)C(=O)N[C@@H]([C@@H](C)O)C(=O)N[C@@H](C)C(=O)N[C@@H]([C@@H](C)O)C(=O)N1)[C@@H](C)O)C(=O)N1CCC[C@H]1C(=O)N[C@@H](CO)C(=O)N[C@@H](CO)C(=O)N[C@H](C(=O)N[C@@H](CC(N)=O)C(=O)N[C@H](C(=O)NCC(=O)N[C@@H](CO)C(=O)N[C@@H](CCCCN)C(=O)N[C@H](C(=O)N[C@@H](Cc1ccc(O)cc1)C(N)=O)[C@@H](C)O)C(C)C)[C@@H](C)O, modifications are with respect to human amylin; also called compound 35) [N^ε1-[(4S)-4-carboxy-4-(19-carboxynonadecanoylamino)butanoyl]-[Arg17,Pro21,Pro27,Lys35]-h-amylin] | 0.948 nM | 61.7 nM | 65.1 | 50.3
3 | K([γGlu-γGlu-C20 diacid])CNTATCATQRLADFLRHSSNPFGAPLSSTNVGSDTY-NH2 (disulfide 2-7; N-terminus assumed; SMILES CC(C)C[C@H](NC(=O)[C@H](CCCNC(=N)N)NC(=O)[C@H](CCC(N)=O)NC(=O)[C@@H](NC(=O)[C@H](C)NC(=O)[C@@H]1CSSC[C@H](NC(=O)[C@@H](N)CCCCNC(=O)CC[C@H](NC(=O)CC[C@H](NC(=O)CCCCCCCCCCCCCCCCCCC(=O)O)C(=O)O)C(=O)O)C(=O)N[C@@H](CC(N)=O)C(=O)N[C@@H]([C@@H](C)O)C(=O)N[C@@H](C)C(=O)N[C@@H]([C@@H](C)O)C(=O)N1)[C@@H](C)O)C(=O)N[C@@H](C)C(=O)N[C@@H](CC(=O)O)C(=O)N[C@@H](Cc1ccccc1)C(=O)N[C@@H](CC(C)C)C(=O)N[C@@H](CCCNC(=N)N)C(=O)N[C@@H](Cc1c[nH]cn1)C(=O)N[C@@H](CO)C(=O)N[C@@H](CO)C(=O)N[C@@H](CC(N)=O)C(=O)N1CCC[C@H]1C(=O)N[C@@H](Cc1ccccc1)C(=O)NCC(=O)N[C@@H](C)C(=O)N1CCC[C@H]1C(=O)N[C@@H](CC(C)C)C(=O)N[C@@H](CO)C(=O)N[C@@H](CO)C(=O)N[C@H](C(=O)N[C@@H](CC(N)=O)C(=O)N[C@H](C(=O)NCC(=O)N[C@@H](CO)C(=O)N[C@@H](CC(=O)O)C(=O)N[C@H](C(=O)N[C@@H](Cc1ccc(O)cc1)C(N)=O)[C@@H](C)O)C(C)C)[C@@H](C)O, modifications are with respect to human amylin; also called compound 3) | 1 nM | 16.7 nM | 16.7 | 17.3
4 | {C20 diacid-γGlu}-KCNTATCATQRLAEFLRHSSPNFGAIPSSTNVGKNTY-NH2 (disulfide 2-7; SMILES CC[C@H](C)[C@H](NC(=O)[C@H](C)NC(=O)CNC(=O)[C@H](Cc1ccccc1)NC(=O)[C@H](CC(N)=O)NC(=O)[C@@H]1CCCN1C(=O)[C@H](CO)NC(=O)[C@H](CO)NC(=O)[C@H](Cc1c[nH]cn1)NC(=O)[C@H](CCCNC(=N)N)NC(=O)[C@H](CC(C)C)NC(=O)[C@H](Cc1ccccc1)NC(=O)[C@H](CCC(=O)O)NC(=O)[C@H](C)NC(=O)[C@H](CC(C)C)NC(=O)[C@H](CCCNC(=N)N)NC(=O)[C@H](CCC(N)=O)NC(=O)[C@@H](NC(=O)[C@H](C)NC(=O)[C@@H]1CSSC[C@H](NC(=O)[C@H](CCCCN)NC(=O)CC[C@H](NC(=O)CCCCCCCCCCCCCCCCCCC(=O)O)C(=O)O)C(=O)N[C@@H](CC(N)=O)C(=O)N[C@@H]([C@@H](C)O)C(=O)N[C@@H](C)C(=O)N[C@@H]([C@@H](C)O)C(=O)N1)[C@@H](C)O)C(=O)N1CCC[C@H]1C(=O)N[C@@H](CO)C(=O)N[C@@H](CO)C(=O)N[C@H](C(=O)N[C@@H](CC(N)=O)C(=O)N[C@H](C(=O)NCC(=O)N[C@@H](CCCCN)C(=O)N[C@@H](CC(N)=O)C(=O)N[C@H](C(=O)N[C@@H](Cc1ccc(O)cc1)C(N)=O)[C@@H](C)O)C(C)C)[C@@H](C)O, modifications are with respect to human amylin; also called compound 36) | 1.86 nM | 60.1 nM | 32.4 | 15.7
5 | K([γGlu-γGlu-C20 diacid])CNTATCATQRLADFLRHSSPNFGAPLSSTNVGSDTY-NH2 (disulfide 2-7; N-terminus assumed; SMILES CC(C)C[C@H](NC(=O)[C@H](CCCNC(=N)N)NC(=O)[C@H](CCC(N)=O)NC(=O)[C@@H](NC(=O)[C@H](C)NC(=O)[C@@H]1CSSC[C@H](NC(=O)[C@@H](N)CCCCNC(=O)CC[C@H](NC(=O)CC[C@H](NC(=O)CCCCCCCCCCCCCCCCCCC(=O)O)C(=O)O)C(=O)O)C(=O)N[C@@H](CC(N)=O)C(=O)N[C@@H]([C@@H](C)O)C(=O)N[C@@H](C)C(=O)N[C@@H]([C@@H](C)O)C(=O)N1)[C@@H](C)O)C(=O)N[C@@H](C)C(=O)N[C@@H](CC(=O)O)C(=O)N[C@@H](Cc1ccccc1)C(=O)N[C@@H](CC(C)C)C(=O)N[C@@H](CCCNC(=N)N)C(=O)N[C@@H](Cc1c[nH]cn1)C(=O)N[C@@H](CO)C(=O)N[C@@H](CO)C(=O)N1CCC[C@H]1C(=O)N[C@@H](CC(N)=O)C(=O)N[C@@H](Cc1ccccc1)C(=O)NCC(=O)N[C@@H](C)C(=O)N1CCC[C@H]1C(=O)N[C@@H](CC(C)C)C(=O)N[C@@H](CO)C(=O)N[C@@H](CO)C(=O)N[C@H](C(=O)N[C@@H](CC(N)=O)C(=O)N[C@H](C(=O)NCC(=O)N[C@@H](CO)C(=O)N[C@@H](CC(=O)O)C(=O)N[C@H](C(=O)N[C@@H](Cc1ccc(O)cc1)C(N)=O)[C@@H](C)O)C(C)C)[C@@H](C)O, modifications are with respect to human amylin; also called compound 1) | 1.3 nM | 135 nM | 104 | 27.6
6 | K([γGlu-γGlu-C20 diacid])CNTATCATQRLADFLRHSSPNFGAIPSSTNVGSDTY-NH2 (disulfide 2-7; N-terminus assumed; SMILES CC[C@H](C)[C@H](NC(=O)[C@H](C)NC(=O)CNC(=O)[C@H](Cc1ccccc1)NC(=O)[C@H](CC(N)=O)NC(=O)[C@@H]1CCCN1C(=O)[C@H](CO)NC(=O)[C@H](CO)NC(=O)[C@H](Cc1c[nH]cn1)NC(=O)[C@H](CCCNC(=N)N)NC(=O)[C@H](CC(C)C)NC(=O)[C@H](Cc1ccccc1)NC(=O)[C@H](CC(=O)O)NC(=O)[C@H](C)NC(=O)[C@H](CC(C)C)NC(=O)[C@H](CCCNC(=N)N)NC(=O)[C@H](CCC(N)=O)NC(=O)[C@@H](NC(=O)[C@H](C)NC(=O)[C@@H]1CSSC[C@H](NC(=O)[C@@H](N)CCCCNC(=O)CC[C@H](NC(=O)CC[C@H](NC(=O)CCCCCCCCCCCCCCCCCCC(=O)O)C(=O)O)C(=O)O)C(=O)N[C@@H](CC(N)=O)C(=O)N[C@@H]([C@@H](C)O)C(=O)N[C@@H](C)C(=O)N[C@@H]([C@@H](C)O)C(=O)N1)[C@@H](C)O)C(=O)N1CCC[C@H]1C(=O)N[C@@H](CO)C(=O)N[C@@H](CO)C(=O)N[C@H](C(=O)N[C@@H](CC(N)=O)C(=O)N[C@H](C(=O)NCC(=O)N[C@@H](CO)C(=O)N[C@@H](CC(=O)O)C(=O)N[C@H](C(=O)N[C@@H](Cc1ccc(O)cc1)C(N)=O)[C@@H](C)O)C(C)C)[C@@H](C)O, modifications are with respect to human amylin; also called compound 2) | 0.295 nM | 108 nM | 366 | 47.5
